In the data set the test system is Hfq (His-tagged) (Burkholderia cenocepacia J2315?). Nature of the data set: EMSA. The following applies: RNA binding buffer (composition in cited ref. 21), 25 ul, 30 min at 25 C, salt and pH not stated.

pKd: −log10 of the molar value.

Consider h2cR sRNA (136 nt), for which the pKd (apparent Kd, 2.5 nM RNA, 0-10 nM Hfq6, excess yeast tRNA, excess unlabelled yeast …) is 8.82. With hfq2 5'-UTR (216 nt), the pKd (excess unlabelled yeast tRNA) is 8.02.

Values taken from article PMC3474761.
